Reference: paper PMC4909229, “Characterization of Staphylococcus aureus Primosomal DnaD Protein: Highly Conserved C-Terminal Region Is Crucial for ssDNA and PriA Helicase Binding but Not for DnaA Protein-Binding and Self-Tetrameri”
Several values for one entry are separate records, joined by “and”; a condition that tells them apart may be missing. Equal values may be shown once.

Columns and labels:
SaDnaD1-195 = target: T1, SaDnaD1-195 (Staphylococcus aureus subsp. aureus ED98, UniProt Q9EUT0 1-195, del196-228); assay: SEC; Superdex 200 HR 10/30, Buffer B (20 mM HEPES, 100 mM NaCl, pH 7.0), purified protein 2 mg/mL (methods; 4 mg/mL in the results for SaDnaD), calibrated with standard proteins; oligomer size from the estimated native mass
T1 sequence: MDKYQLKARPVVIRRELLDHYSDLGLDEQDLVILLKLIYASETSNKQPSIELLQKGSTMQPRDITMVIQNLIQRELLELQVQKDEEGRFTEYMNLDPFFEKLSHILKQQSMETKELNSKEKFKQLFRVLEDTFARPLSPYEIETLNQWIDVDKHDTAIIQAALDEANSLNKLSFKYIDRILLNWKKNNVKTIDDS

[1] = target: Staphylococcus aureus PriA helicase (SaPriA) (Staphylococcus aureus subsp. aureus ED98)
[2] = target: Staphylococcus aureus PriA helicase (SaPriA) (Staphylococcus aureus subsp. aureus ED98); remark: listed apart in the source
[3] = target: Staphylococcus aureus PriA helicase (SaPriA) (Staphylococcus aureus subsp. aureus ED98); remark: listed apart in the source
[4] = target: Staphylococcus aureus DnaA (SaDnaA) (Staphylococcus aureus subsp. aureus ED98); assay: SPR; SaPriA or SaDnaA immobilised on CM5 chips, Biacore T200, 293 K, 40 mM Tris, 200 mM NaCl, 0.05% Tween-20, pH 8.0; SaDnaD solutions 7.6-250 nM as analyte; 1:1 (Langmuir) model
SaDnaD1-200 = target: T2, SaDnaD1-200 (Staphylococcus aureus subsp. aureus ED98, UniProt Q9EUT0 1-200, del201-228); assay: SEC; Superdex 200 HR 10/30, Buffer B (20 mM HEPES, 100 mM NaCl, pH 7.0), purified protein 2 mg/mL (methods; 4 mg/mL in the results for SaDnaD), calibrated with standard proteins; oligomer size from the estimated native mass
T2 sequence: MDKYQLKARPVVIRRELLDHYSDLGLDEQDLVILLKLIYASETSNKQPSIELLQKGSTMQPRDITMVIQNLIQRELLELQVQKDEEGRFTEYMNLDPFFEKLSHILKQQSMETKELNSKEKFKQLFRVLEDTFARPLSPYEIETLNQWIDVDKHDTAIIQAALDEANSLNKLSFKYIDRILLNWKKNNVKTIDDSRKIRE

[5] = target: Staphylococcus aureus PriA helicase (SaPriA) (Staphylococcus aureus subsp. aureus ED98); assay: SPR; SaPriA or SaDnaA immobilised on CM5 chips, Biacore T200, 293 K, 40 mM Tris, 200 mM NaCl, 0.05% Tween-20, pH 8.0; SaDnaD solutions 7.6-250 nM as analyte; 1:1 (Langmuir) model
SaDnaD1-204 = target: T3, SaDnaD1-204 (Staphylococcus aureus subsp. aureus ED98, UniProt Q9EUT0 1-204, del205-228); assay: SEC; Superdex 200 HR 10/30, Buffer B (20 mM HEPES, 100 mM NaCl, pH 7.0), purified protein 2 mg/mL (methods; 4 mg/mL in the results for SaDnaD), calibrated with standard proteins; oligomer size from the estimated native mass
T3 sequence: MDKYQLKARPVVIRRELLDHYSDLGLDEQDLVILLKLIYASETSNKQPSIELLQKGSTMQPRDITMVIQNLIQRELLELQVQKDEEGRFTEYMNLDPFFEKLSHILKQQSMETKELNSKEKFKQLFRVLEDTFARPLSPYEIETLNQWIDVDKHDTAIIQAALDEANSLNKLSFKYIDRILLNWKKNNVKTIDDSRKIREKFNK

[6] = target: Staphylococcus aureus DnaD (SaDnaD) (Staphylococcus aureus subsp. aureus ED98) (UniProt Q9EUT0); assay: as above
SaDnaD [7] = target: T4, SaDnaD (Staphylococcus aureus subsp. aureus ED98, UniProt Q9EUT0 1-228); assay: EMSA; EMSA: 20 mM Tris-HCl pH 8.0, 100 mM NaCl, 25 C, 30 min, 1.7 nM DNA, gel at 4 C in TBE; fluorescence: 20 mM Tris-HCl pH 8.0, 200 or 500 mM NaCl, 0.1 uM tetramer; conditions: protein: recombinant; tags: C-terminal His tag (pET21e); chain copies: 4; label: 5'-32P
T4 sequence: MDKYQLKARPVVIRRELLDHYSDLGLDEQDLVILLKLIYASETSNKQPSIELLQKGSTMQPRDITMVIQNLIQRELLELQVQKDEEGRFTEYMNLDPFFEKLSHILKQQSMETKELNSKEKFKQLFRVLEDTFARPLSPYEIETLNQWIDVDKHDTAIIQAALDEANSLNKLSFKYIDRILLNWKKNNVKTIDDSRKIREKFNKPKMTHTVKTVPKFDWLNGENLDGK

SaDnaD [8] = target: T4, SaDnaD; assay: EMSA; two complexes summed; EMSA: 20 mM Tris-HCl pH 8.0, 100 mM NaCl, 25 C, 30 min, 1.7 nM DNA, gel at 4 C in TBE; fluorescence: 20 mM Tris-HCl pH 8.0, 200 or 500 mM NaCl, 0.1 uM tetramer; conditions: protein: recombinant, tags: C-terminal His tag (pET21e), chain copies: 4

Molecule: SaDnaD1-195 (from UniProt Q9EUT0 1-195) (domain or fragment)
- stoichiometry N (SaDnaD1-195): 4
- SaPriA ATPase activity with tag-free SaDnaD1-195 (10 μM), stimulation over SaPriA alone [1]: 2 fold
- Fold of Vmax/Km of SaPriA ATPase with tag-free SaDnaD1-195 (10 μM) against PriA alone [2]: 1.2 fold
- SaPriA ATPase activity with His-tagged SaDnaD1-195 (10 μM), stimulation over SaPriA alone [3]: 2 fold
- Kd [4]: 150 nM

Molecule: SaDnaD1-200 (from UniProt Q9EUT0 1-200) (domain or fragment)
- stoichiometry N (SaDnaD1-200): 4
- Kd [5]: 26 nM

Molecule: SaDnaD1-204 (from UniProt Q9EUT0 1-204) (domain or fragment)
- stoichiometry N (SaDnaD1-204): 4
- Kd [5]: 11 nM

Molecule: Staphylococcus aureus DnaD (SaDnaD) (from UniProt Q9EUT0 1-228) (natural protein)
- stoichiometry N [6]: 4
- SaPriA ATPase activity with tag-free SaDnaD (10 μM), stimulation over SaPriA alone [1]: 11 fold and 12 fold
- Fold of Vmax/Km of SaPriA ATPase with tag-free SaDnaD (10 μM) against PriA alone [2]: 5.3 fold
- SaPriA ATPase activity with His-tagged SaDnaD (10 μM), stimulation over SaPriA alone [3]: 12 fold
- Kd [4]: 17 nM
- Kd [5]: 2 nM

Molecule: tag-free SaDnaDY176A mutant protein (from UniProt Q9EUT0 1-228) (natural protein)
- Fold of Vmax/Km of SaPriA ATPase with tag-free SaDnaDY176A (10 μM) against PriA alone [2]: 5.1 fold

Molecule: TTTTTTTTTTTTTTTTTTTTTTTTT (ssDNA) [dT25]
- apparent K (half saturation) (SaDnaD [7]): 4700 ± 800 nM

Molecule: TTTTTTTTTTTTTTTTTTTTTTTTTTTTTTTTTTT (ssDNA) [dT35]
- apparent K (half saturation) (SaDnaD [7]): 2200 ± 300 nM

Molecule: TTTTTTTTTTTTTTTTTTTTTTTTTTTTTTTTTTTTTTTTTTTTT (ssDNA) [dT45]
- apparent K (half saturation) (SaDnaD [7]): 2000 ± 200 nM

B1: dT55 (ssDNA)
DNA: TTTTTTTTTTTTTTTTTTTTTTTTTTTTTTTTTTTTTTTTTTTTTTTTTTTTTTT
- apparent K (half saturation) (SaDnaD [7]): 1400 ± 100 nM

B2: dT60 (ssDNA)
DNA: TTTTTTTTTTTTTTTTTTTTTTTTTTTTTTTTTTTTTTTTTTTTTTTTTTTTTTTTTTTT
- apparent K (half saturation) (SaDnaD [8]; label: 5'-32P): 1500 ± 100 nM

B3: dT65 (ssDNA)
DNA: TTTTTTTTTTTTTTTTTTTTTTTTTTTTTTTTTTTTTTTTTTTTTTTTTTTTTTTTTTTTTTTTT
- apparent K (half saturation) (SaDnaD [8]; label: 5'-32P (EMSA), unlabeled in fluorescence titration): 500 ± 100 nM
